Reference: US12359223B2, “Systems and methods for modulating chromosomal rearrangements” (Editas Medicine, Inc., priority 2018, dated 2025)

System: chromosome 15 (B2M) and chromosome 14 (TRAC) cut sites
Assay: Translocation rates induced by translocation promoting oligos
Format: cell-based, human
Details: Cas9/B2M12 and Cas9/TRAC5 RNPs 0.6 μM; average of plus and minus strand oligo; FIG. 11B
Description: Two simultaneous DSBs were introduced in primary human T cells by nucleofection with Cas9/B2M (B2M12 gRNA) and Cas9/TRAC (TRAC5 gRNA) RNP complexes at a concentration of 0.6 μM, along with one of the translocation promoting oligos depicted in FIG. 11A.

B1: Dicentric oligo: translocation promoting ssODN, plus or minus strand, SEQ ID NOs: 16, 17 (nucleic acid)
chain 1: CACGCGTTTAATATAAGTGGAGGCGTCGCGCTGGCGGGCATTCCTGAAGCTGACAGCATTCGGGCCGAGATGATCAGGGTTCTGGATATCTGTGGGACAAGAGGATCAGGGTTAGGACATGATCTCATTTCCCTCTTTGCCCC
chain 2: GGGGCAAAGAGGGAAATGAGATCATGTCCTAACCCTGATCCTCTTGTCCCACAGATATCCAGAACCCTGATCATCTCGGCCCGAATGCTGTCAGCTTCAGGAATGCCCGCCAGCGCGACGCCTCCACTTATATTAAACGCGTG
modifications: /note=“Description of Unknown Donor template sequence”
Question: Which translocation products enhanced does the source give for B1 here?
Answer: enhanced the formation of Dicentric and Acentric translocation products
